B1: Twister Ribozyme (parent)
chain: AACACUGCCAAUGCCGGUCCCAAGCCCGGAUAAAAGUGGAGGGGGCGG

Variants of: B1
Test: self-cleavage, relative activity (ratio to wild type); higher = more cleavage; co-transcriptional
CACACUGCCAAUGCCGGUCCCAAGCCCGGAUAAAAGUGGAAGGGGCGG showed a self-cleavage of 0.143. CACACUGCCAAUGCCGGUCCCAAGCCCGGAUAAAAGUGGACGGGGCGG showed a self-cleavage of 0.14. CACACUGCCAAUGCCGGUCCCAAGCCCGGAUAAAAGUGGAUGGGGCGG showed a self-cleavage of 0.199. CACACUGCCAAUGCCGGUCCCAAGCCCGGAUAAAAGUGGAGCGGGCGG gave a self-cleavage of 0.239. For CACACUGCCAAUGCCGGUCCCAAGCCCGGAUAAAAGUGGAGUGGGCGG, the self-cleavage was 0.169. With CACACUGCCAAUGCCGGUCCCAAGCCCGGAUAAAAGUGGAGGUGGCGG the self-cleavage was 0.179. Variant CACACUGCCAAUGCCGGUCCCAAGCCCGGAUAAAAGUGGAGGGAGCGG has a self-cleavage of 0.176. For CACACUGCCAAUGCCGGUCCCAAGCCCGGAUAAAAGUGGAGGGCGCGG, the self-cleavage was 0.162. With CACACUGCCAAUGCCGGUCCCAAGCCCGGAUAAAAGUGGAGGGUGCGG the self-cleavage was 0.133. For CACACUGCCAAUGCCGGUCCCAAGCCCGGAUAAAAGUGGAGGGGGCCG, the self-cleavage was 0.199. Variant CACACUGCCAAUGCCGGUCCCAAGCCCGGAUAAAAGUGGAGGGGGCGU has a self-cleavage of 0.212. For CACACAGCCAAUGCCGGUCCCAAGCCCGGAUAAAAGUGGAGGGGGCGG, the self-cleavage was 0.189. Work on CACACCGCCAAUGCCGGUCCCAAGCCCGGAUAAAAGUGGAGGGGGCGG yielded a self-cleavage of 0.147. In the case of CACACGGCCAAUGCCGGUCCCAAGCCCGGAUAAAAGUGGAGGGGGCGG, the self-cleavage is reported as 0.0831. Variant CACACUGCCAACGCCGGUCCCAAGCCCGGAUAAAAGUGGAGGGGGCGG has a self-cleavage of 0.144. In the case of CACACUGCCAAUGCCGGACCCAAGCCCGGAUAAAAGUGGAGGGGGCGG, the self-cleavage is reported as 0.14. With CACACUGCCAAUGCCGGCCCCAAGCCCGGAUAAAAGUGGAGGGGGCGG the self-cleavage was 0.17. CACACUGCCAAUGCCGGUCCCAAGCCCGGACAAAAGUGGAGGGGGCGG showed a self-cleavage of 0.141. In the case of CACACUGCCAAUGCCGGUCCCAAGCCCGGAUAAAAGAGGAGGGGGCGG, the self-cleavage is reported as 0.148. For GCCACUGCCAAUGCCGGUCCCAAGCCCGGAUAAAAGUGGAGGGGGCGG, the self-cleavage was 1.43. GUCACUGCCAAUGCCGGUCCCAAGCCCGGAUAAAAGUGGAGGGGGCGG gave a self-cleavage of 0.19. GACCCUGCCAAUGCCGGUCCCAAGCCCGGAUAAAAGUGGAGGGGGCGG gave a self-cleavage of 0.0744. In the case of GACUCUGCCAAUGCCGGUCCCAAGCCCGGAUAAAAGUGGAGGGGGCGG, the self-cleavage is reported as 0.235. With GACACUGCCCAUGCCGGUCCCAAGCCCGGAUAAAAGUGGAGGGGGCGG the self-cleavage was 0.532. With GACACUGCCAUUGCCGGUCCCAAGCCCGGAUAAAAGUGGAGGGGGCGG the self-cleavage was 0.47. GACACUGCCAAUGCCGGUCCCCAGCCCGGAUAAAAGUGGAGGGGGCGG showed a self-cleavage of 0.325. In the case of GACACUGCCAAUGCCGGUCCCAGGCCCGGAUAAAAGUGGAGGGGGCGG, the self-cleavage is reported as 0.213. For GACACUGCCAAUGCCGGUCCCAUGCCCGGAUAAAAGUGGAGGGGGCGG, the self-cleavage was 0.296. For GACACUGCCAAUGCCGGUCCCAAGCCCGGGUAAAAGUGGAGGGGGCGG, the self-cleavage was 0.376. Work on GACACUGCCAAUGCCGGUCCCAAGCCCGGAUCAAAGUGGAGGGGGCGG yielded a self-cleavage of 0.497. In the case of GACACUGCCAAUGCCGGUCCCAAGCCCGGAUGAAAGUGGAGGGGGCGG, the self-cleavage is reported as 0.507. With GACACUGCCAAUGCCGGUCCCAAGCCCGGAUUAAAGUGGAGGGGGCGG the self-cleavage was 0.459. GACACUGCCAAUGCCGGUCCCAAGCCCGGAUAGAAGUGGAGGGGGCGG gave a self-cleavage of 0.499. For GACACUGCCAAUGCCGGUCCCAAGCCCGGAUAUAAGUGGAGGGGGCGG, the self-cleavage was 0.512. GACACUGCCAAUGCCGGUCCCAAGCCCGGAUAAGAGUGGAGGGGGCGG gave a self-cleavage of 0.361. With GACACUGCCAAUGCCGGUCCCAAGCCCGGAUAAUAGUGGAGGGGGCGG the self-cleavage was 0.24. GACACUGCCAAUGCCGGUCCCAAGCCCGGAUAAACGUGGAGGGGGCGG gave a self-cleavage of 0.359. Work on GACACUGCCAAUGCCGGUCCCAAGCCCGGAUAAAAGUGGGGGGGGCGG yielded a self-cleavage of 0.227. GAAACUGCCAAUGCCGGUCCCAAGCCCGGAUAAAAGUGGAGGGGGCGG showed a self-cleavage of 0.349. Work on GACAAUGCCAAUGCCGGUCCCAAGCCCGGAUAAAAGUGGAGGGGGCGG yielded a self-cleavage of 0.224. In the case of GACAUUGCCAAUGCCGGUCCCAAGCCCGGAUAAAAGUGGAGGGGGCGG, the self-cleavage is reported as 0.328. Variant GACACUGACAAUGCCGGUCCCAAGCCCGGAUAAAAGUGGAGGGGGCGG has a self-cleavage of 0.22. In the case of GACACUGCGAAUGCCGGUCCCAAGCCCGGAUAAAAGUGGAGGGGGCGG, the self-cleavage is reported as 0.315. With GACACUGCUAAUGCCGGUCCCAAGCCCGGAUAAAAGUGGAGGGGGCGG the self-cleavage was 0.259. With GACACUGCCAAUGACGGUCCCAAGCCCGGAUAAAAGUGGAGGGGGCGG the self-cleavage was 0.467. With GACACUGCCAAUGGCGGUCCCAAGCCCGGAUAAAAGUGGAGGGGGCGG the self-cleavage was 0.168. GACACUGCCAAUGUCGGUCCCAAGCCCGGAUAAAAGUGGAGGGGGCGG gave a self-cleavage of 0.693. GACACUGCCAAUGCAGGUCCCAAGCCCGGAUAAAAGUGGAGGGGGCGG gave a self-cleavage of 0.265. With GACACUGCCAAUGCGGGUCCCAAGCCCGGAUAAAAGUGGAGGGGGCGG the self-cleavage was 0.125. GACACUGCCAAUGCCGGUGCCAAGCCCGGAUAAAAGUGGAGGGGGCGG gave a self-cleavage of 0.202. For GACACUGCCAAUGCCGGUUCCAAGCCCGGAUAAAAGUGGAGGGGGCGG, the self-cleavage was 0.345. GACACUGCCAAUGCCGGUCGCAAGCCCGGAUAAAAGUGGAGGGGGCGG showed a self-cleavage of 0.134. GACACUGCCAAUGCCGGUCCGAAGCCCGGAUAAAAGUGGAGGGGGCGG showed a self-cleavage of 0.0325. For GACACUGCCAAUGCCGGUCCUAAGCCCGGAUAAAAGUGGAGGGGGCGG, the self-cleavage was 0.146.

Reference: the RNAGym collection of RNA variant scans (doi:10.7554/elife.80360)
